{"source": "patent US20050053913A1", "biological_target": "AD-E2F1 (GAL4-AD fused to AA 159-437 of E2F1) (yeast; human) (UniProt P04386)", "experiment": "cell-based or functional assay"}
{"substance": "DB-DP1 (GAL4-DB fused to DP1) (from UniProt P04386 1-147; Q14186 1-410)", "values": [{"measurement": "growth on medium lacking histidine with 3AT (GAL1:HIS3 reporter)", "result": "< 100", "unit": "mM 3AT"}]}
